The values below come from patent US20260201008A1, “SECRETIN-DERIVED GLP1R SELECTIVE AGONISTS” (GUBRA A/S, priority 2023, published 2026).

In brackets after ≈: the same amount, converted by molar mass. Like-named read-outs stand apart in the source and are kept apart here. Numbered stars: 1 amine (or outer) side, 2 acyl side, 3 side chain; on linkers, the order of the positions; unused ones are H or OH. Square brackets hold non-standard residues; d marks the D form. Side chains are listed from the residue outwards. Ends that are not written are not given here. Peptide text beside a SMILES is read from it. * marks the point of attachment. C20 diacid = O=C(O)CCCCCCCCCCCCCCCCCCC(=O)*; γGlu = O=C(O)[C@H](CCC(=O)[*:2])N[*:1]; AEEA = NCCOCCOCC(=O)O; Aib = CC(C)(N)C(=O)O

One may read the solubility as the dissolved amount per volume that the medium holds. A higher solubility goes with a readily soluble substance.

Data set [1] is described as follows: Thioflavin T fibril formation assay of purified peptides. The format is physicochemical. Particulars: 267 μM, phosphate buffer pH 7.0, 96 h at 40° C. The method, then: Thioflavin T fibril formation assay: Peptides are dissolved as 267 μM in 50 mM phosphate buffer pH 7.0 for 2 h at room temperature on a rocking table. The samples were then divided into three replicates of 80 μl/well and mixed with 2 μl/well Thioflavin T (ThT) to a final concentration of 4 μM ThT in a black 384 well microplate with a clear bottom (Greiner #781096). The plate is inserted in a CLARIOstar Plus microplate reader (BMG Labtech) and fibril formation is measured as an increase in fluorescence emission at 480 nm (excitation at 450 nm) during 96 h at 40° C. with cycles of 5 min rest and 5 min linear shaking at 700 rpm.

A short description of data set [2]: Solubility of purified peptides. The format is physicochemical. Particulars: 100 mM phosphate buffer, target pH 7.0, target approximately 10 mg/mL. Here is the method: Solubility was tested in the following vehicles: 100 mM phosphate buffer facilitating a target pH of 7.0. Samples were directly dissolved in Mini-UniPrep Syringeless Filter 0.45 μm unit (Whatman). For the desired concentration, such as a concentration of approximately 10 mg/mL, 1050 nmol of peptide was dissolved in 400 μL vehicle. Samples were incubated for at least 1 h at room temperature on a rocking table. The pH was measured and adjusted. Samples were left on the rocking table for an additional hour before a second pH measurement and adjustment. Visual inspection was performed and noted before the filter was pushed. The concentration of peptide in the filtrate was determined using CAD (Charged Aerosol Detection), double determination was done for each sample. The measured concentration was reported in μM. Furthermore, the pH of the filtrate was measured and reported. Peptides with a measured concentration within +/−20% of target concentration are considered fully soluble.

The target of data set [3] is T1, human secretin receptor (hSCTR) (human, UniProt P47872 23-440). Description: cell-based or functional assay.
T1 sequence (P47872 23-440): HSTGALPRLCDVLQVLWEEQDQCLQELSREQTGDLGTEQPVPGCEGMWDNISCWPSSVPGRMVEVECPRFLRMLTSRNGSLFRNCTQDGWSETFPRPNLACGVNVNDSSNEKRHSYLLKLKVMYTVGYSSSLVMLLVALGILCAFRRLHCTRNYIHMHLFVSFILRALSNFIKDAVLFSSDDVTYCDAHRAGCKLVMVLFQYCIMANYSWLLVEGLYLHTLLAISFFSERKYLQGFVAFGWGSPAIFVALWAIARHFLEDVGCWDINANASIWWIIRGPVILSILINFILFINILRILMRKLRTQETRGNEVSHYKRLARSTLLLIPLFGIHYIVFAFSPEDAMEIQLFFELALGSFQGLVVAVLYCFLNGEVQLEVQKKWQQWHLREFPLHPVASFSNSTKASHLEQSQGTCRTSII
The target in data set [4] is human GLP-1 receptor (hGLP1R) (human, UniProt P43220 24-463). Description: cell-based or functional assay.
The target of data set [5] is T1, human secretin receptor (hSCTR). Description: cell-based or functional assay. This is another data set of the same source.

Take `CC(C)C[C@H](NC(=O)[C@H](Cc1ccccc1)NC(=O)[C@H](CCCNC(=N)N)NC(=O)[C@H](CCC(N)=O)NC(=O)[C@H](CC(C)C)NC(=O)C(C)(C)NC(=O)[C@H](C)NC(=O)[C@H](CCC(=O)O)NC(=O)[C@H](CCC(=O)O)NC(=O)[C@H](CCCCNC(=O)COCCOCCNC(=O)COCCOCCNC(=O)CC[C@H](NC(=O)CCCCCCCCCCCCCCCCCCC(=O)O)C(=O)O)NC(=O)[C@H](CC(C)C)NC(=O)[C@H](CCCNC(=N)N)NC(=O)[C@H](CO)NC(=O)[C@@H](NC(=O)[C@H](CC(=O)O)NC(=O)[C@H](CO)NC(=O)[C@@H](NC(=O)[C@H](Cc1ccccc1)NC(=O)[C@@H](NC(=O)CNC(=O)[C@H](CCC(=O)O)NC(=O)C(C)(C)NC(=O)[C@@H](N)Cc1c[nH]cn1)[C@@H](C)O)[C@@H](C)O)C(C)C)C(=O)N[C@@H](CCC(=O)O)C(=O)N[C@@H](Cc1c[nH]cn1)C(=O)N[C@@H](CC(C)C)C(=O)N[C@H](C(=O)N[C@@H](CCC(=O)O)C(=O)N[C@@H](C)C(=O)N[C@@H](C)C(N)=O)C(C)C` [compound 208] (H-H[Aib]EGTFTSDVSRLK([AEEA-AEEA-γGlu-C20 diacid])EEA[Aib]LQRFLEHLVEAA-NH2): the Fibril formation entry in data set [1] is given as “No”. The solubility in data set [2] turned out to be 9200 µg/mL (≈ 2230 µM).

Turning to `CC(C)C[C@H](NC(=O)[C@H](Cc1ccccc1)NC(=O)[C@H](CCCNC(=N)N)NC(=O)[C@H](CCC(N)=O)NC(=O)[C@H](CC(C)C)NC(=O)C(C)(C)NC(=O)[C@H](C)NC(=O)[C@H](CCC(=O)O)NC(=O)[C@H](CCC(=O)O)NC(=O)[C@H](CCCCNC(=O)COCCOCCNC(=O)COCCOCCNC(=O)CC[C@H](NC(=O)CCCCCCCCCCCCCCCCCCC(=O)O)C(=O)O)NC(=O)[C@H](CC(C)C)NC(=O)[C@H](CCC(=O)O)NC(=O)[C@H](CO)NC(=O)[C@@H](NC(=O)[C@H](CC(=O)O)NC(=O)[C@H](CO)NC(=O)[C@@H](NC(=O)[C@H](Cc1ccccc1)NC(=O)[C@@H](NC(=O)CNC(=O)[C@H](CCC(=O)O)NC(=O)C(C)(C)NC(=O)[C@@H](N)Cc1c[nH]cn1)[C@@H](C)O)[C@@H](C)O)C(C)C)C(=O)N[C@@H](CCC(=O)O)C(=O)N[C@@H](Cc1c[nH]cn1)C(=O)N[C@@H](CC(C)C)C(=O)N[C@H](C(=O)N[C@@H](CCC(=O)O)C(=O)N[C@@H](C)C(=O)N[C@@H](C)C(N)=O)C(C)C` [compound 210] (H-H[Aib]EGTFTSDVSELK([AEEA-AEEA-γGlu-C20 diacid])EEA[Aib]LQRFLEHLVEAA-NH2), the Fibril formation entry in data set [1] was “No”. Moreover, the solubility in data set [2] was determined as 8300 µg/mL (≈ 2020 µM).

B1: SEQ ID NO: 228 (peptide)
peptide: H[Aib]EGTFTSDLSWLLEGAALQRFIQWLV-NH2
modifications: N-terminus assumed
SMILES: CC[C@H](C)[C@H](NC(=O)[C@H](Cc1ccccc1)NC(=O)[C@H](CCCNC(=N)N)NC(=O)[C@H](CCC(N)=O)NC(=O)[C@H](CC(C)C)NC(=O)[C@H](C)NC(=O)[C@H](C)NC(=O)CNC(=O)[C@H](CCC(=O)O)NC(=O)[C@H](CC(C)C)NC(=O)[C@H](CC(C)C)NC(=O)[C@H](Cc1c[nH]c2ccccc12)NC(=O)[C@H](CO)NC(=O)[C@H](CC(C)C)NC(=O)[C@H](CC(=O)O)NC(=O)[C@H](CO)NC(=O)[C@@H](NC(=O)[C@H](Cc1ccccc1)NC(=O)[C@@H](NC(=O)CNC(=O)[C@H](CCC(=O)O)NC(=O)C(C)(C)NC(=O)[C@@H](N)Cc1c[nH]cn1)[C@@H](C)O)[C@@H](C)O)C(=O)N[C@@H](CCC(N)=O)C(=O)N[C@@H](Cc1c[nH]c2ccccc12)C(=O)N[C@@H](CC(C)C)C(=O)N[C@H](C(N)=O)C(C)C
Turning to B1, the “pEC50 hSCTR” value in data set [3] was 9.1 -log M. The “pEC50 hGLPR1” value in data set [4] is 10.8 -log M.

B2: SEQ ID NO: 217 (peptide)
peptide: H[Aib]EGTFTSDYSRLLEGAALQRFIQWLV-NH2
modifications: N-terminus assumed
SMILES: CC[C@H](C)[C@H](NC(=O)[C@H](Cc1ccccc1)NC(=O)[C@H](CCCNC(=N)N)NC(=O)[C@H](CCC(N)=O)NC(=O)[C@H](CC(C)C)NC(=O)[C@H](C)NC(=O)[C@H](C)NC(=O)CNC(=O)[C@H](CCC(=O)O)NC(=O)[C@H](CC(C)C)NC(=O)[C@H](CC(C)C)NC(=O)[C@H](CCCNC(=N)N)NC(=O)[C@H](CO)NC(=O)[C@H](Cc1ccc(O)cc1)NC(=O)[C@H](CC(=O)O)NC(=O)[C@H](CO)NC(=O)[C@@H](NC(=O)[C@H](Cc1ccccc1)NC(=O)[C@@H](NC(=O)CNC(=O)[C@H](CCC(=O)O)NC(=O)C(C)(C)NC(=O)[C@@H](N)Cc1c[nH]cn1)[C@@H](C)O)[C@@H](C)O)C(=O)N[C@@H](CCC(N)=O)C(=O)N[C@@H](Cc1c[nH]c2ccccc12)C(=O)N[C@@H](CC(C)C)C(=O)N[C@H](C(N)=O)C(C)C
As for B2, the “pEC50 hSCTR” value in data set [5] was 8.8 -log M.

B3: SEQ ID NO: 229 (peptide)
peptide: H[Aib]EGTFTSDLSYLLEGAALQRFIQWLV-NH2
modifications: N-terminus assumed
SMILES: CC[C@H](C)[C@H](NC(=O)[C@H](Cc1ccccc1)NC(=O)[C@H](CCCNC(=N)N)NC(=O)[C@H](CCC(N)=O)NC(=O)[C@H](CC(C)C)NC(=O)[C@H](C)NC(=O)[C@H](C)NC(=O)CNC(=O)[C@H](CCC(=O)O)NC(=O)[C@H](CC(C)C)NC(=O)[C@H](CC(C)C)NC(=O)[C@H](Cc1ccc(O)cc1)NC(=O)[C@H](CO)NC(=O)[C@H](CC(C)C)NC(=O)[C@H](CC(=O)O)NC(=O)[C@H](CO)NC(=O)[C@@H](NC(=O)[C@H](Cc1ccccc1)NC(=O)[C@@H](NC(=O)CNC(=O)[C@H](CCC(=O)O)NC(=O)C(C)(C)NC(=O)[C@@H](N)Cc1c[nH]cn1)[C@@H](C)O)[C@@H](C)O)C(=O)N[C@@H](CCC(N)=O)C(=O)N[C@@H](Cc1c[nH]c2ccccc12)C(=O)N[C@@H](CC(C)C)C(=O)N[C@H](C(N)=O)C(C)C
B3: in data set [3], the “pEC50 hSCTR” value is 8 -log M. The “pEC50 hGLPR1” value in data set [4] was 10.8 -log M.

B4: SEQ ID NO: 219 (peptide)
peptide: H[Aib]EGTFTSDWSRLLEGAALQRFIQWLV-NH2
modifications: N-terminus assumed
SMILES: CC[C@H](C)[C@H](NC(=O)[C@H](Cc1ccccc1)NC(=O)[C@H](CCCNC(=N)N)NC(=O)[C@H](CCC(N)=O)NC(=O)[C@H](CC(C)C)NC(=O)[C@H](C)NC(=O)[C@H](C)NC(=O)CNC(=O)[C@H](CCC(=O)O)NC(=O)[C@H](CC(C)C)NC(=O)[C@H](CC(C)C)NC(=O)[C@H](CCCNC(=N)N)NC(=O)[C@H](CO)NC(=O)[C@H](Cc1c[nH]c2ccccc12)NC(=O)[C@H](CC(=O)O)NC(=O)[C@H](CO)NC(=O)[C@@H](NC(=O)[C@H](Cc1ccccc1)NC(=O)[C@@H](NC(=O)CNC(=O)[C@H](CCC(=O)O)NC(=O)C(C)(C)NC(=O)[C@@H](N)Cc1c[nH]cn1)[C@@H](C)O)[C@@H](C)O)C(=O)N[C@@H](CCC(N)=O)C(=O)N[C@@H](Cc1c[nH]c2ccccc12)C(=O)N[C@@H](CC(C)C)C(=O)N[C@H](C(N)=O)C(C)C
As for B4, in data set [5], the “pEC50 hSCTR” value was 8.2 -log M.
